In patent US20220291215A1 (published 2022):

How the values were obtained:
Test in all cases: multimer staining
[1] = target: T1, MAGE-A2 peptide on HLA-DPA1*01:03 / HLA-DPB1*04:01 (human)
T1 peptide: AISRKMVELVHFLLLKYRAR

[2] = target: T2, CCND1 peptide on HLA-DPA1*01:03 / HLA-DPB1*04:01 (human)
T2 peptide: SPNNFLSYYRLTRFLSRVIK

[3] = target: T3, MUC5AC peptide on HLA-DPA1*01:03 / HLA-DPB1*04:01 (human)
T3 peptide: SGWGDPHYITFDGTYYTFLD

[4] = target: T4, LGSN peptide on HLA-DPA1*01:03 / HLA-DPB1*04:01 (human)
T4 peptide: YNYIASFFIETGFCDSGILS

[5] = target: T5, LY6K peptide on HLA-DRA*01:01 / HLA-DRB1*01:01 (human)
T5 peptide: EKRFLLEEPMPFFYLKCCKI

[6] = target: T6, HSD17B12 peptide on HLA-DPA1*01:03 / HLA-DPB1*04:01 (human)
T6 peptide: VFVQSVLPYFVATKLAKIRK

B1: 06-MAGE-A2108-127 (TCR)
alpha TRAV19*01 TRAJ40*01 CDR3: CALSVGTYKYIF
beta TRBV7-9*01 TRBJ2-5*01 CDR3: CASSPGTGGRETQYF
B1: recognises [1].

B2: 03-CCND1219-238 (TCR)
alpha TRAV2*01 TRAJ21*01 CDR3: CAVCTLYNFNKFYF
beta TRBV6-5*01 TRBJ2-1*01 CDR3: CASLTDNNEQFF
B2: recognises [2].

B3: 05-MUC5AC4922-4941 (TCR)
Valpha: QTVTQSQPEMSVQEAETVTLSCTYDTSESNYYLFWYKQPPSRQMILVIRQEAYKQQNATENRFSVNFQKAAKSFSLKISDSQLGDTAMYFCAFMKRAETSGSRLTFGEGTQLTVNP
beta TRBV6-2*01 TRBJ2-5*01 CDR3: CASSYWPTRETQYF
B3: recognises [3].

B4: 03-MAGE-A2108-127 (TCR)
alpha TRAV36/DV7*04 TRAJ40*01 CDR3: CAVEVNSGTYKYIF
beta TRBV2*01 TRBJ1-1*01 CDR3: CASRRDLAAFF
B4: recognises [1].

B5: 05-LGSN296-315 (TCR)
alpha TRAV9-2*03 TRAJ32*01 CDR3: CALSDLSYGGATNKLIF
beta TRBV27*01 TRBJ1-5*01 CDR3: CASSKGQGLGNQPQHF
B5: recognises [4].

B6: DR1-08-LY6K99-118 (TCR)
alpha TRAV38-2/DV8*01 TRAJ52*01 CDR3: CAYRSFLNAGGTSYGKLTF
beta TRBV20-1*01 TRBJ1-6*01 CDR3: CAASRESKWSSYNSPLHF
B6: recognises [5].

B7: 05-HSD17B12225-244 (TCR)
alpha TRAV22*01 TRAJ18*01 CDR3: CAVAPYDRGSTLGRLYF
beta TRBV19*01 TRBJ2-5*01 CDR3: CASSTGQGLETQYF
B7: recognises [6].
